Test results: PMC5659210, “Extending the biocatalytic scope of regiocomplementary flavin-dependent halogenase enzymes” (Chemical Science, 2015)

Assays:
Assay in all cases: Michaelis-Menten chlorination assay, HPLC, Fre-coupled
Assay type in all cases: biochemical, Pseudomonas fluorescens
Conditions in all cases: Fre in excess, 30 °C
[1] = substrate: NC(=O)c1ccccc1N
Text: (§1) Michaelis-Menten chlorination assay, HPLC, Fre-coupled on PrnA

[2] = substrate: N[C@@H](Cc1c[nH]c2ccccc12)C(=O)O
Text: as §1

[3] = substrate: Nc1ccccc1C(=O)C[C@H](N)C(=O)O
Text: as §1

[4] = substrate: Nc1ccccc1C(=O)O
Text: as §1

B1: PrnA (Pseudomonas fluorescens) (protein)
chain: MNKPIKNIVIVGGGTAGWMAASYLVRALQQQANITLIESAAIPRIGVGEATIPSLQKVFFDFLGIPEREWMPQVNGAFKAAIKFVNWRKSPDPSRDDHFYHLFGNVPNCDGVPLTHYWLRKREQGFQQPMEYACYPQPGALDGKLAPCLSDGTRQMSHAWHFDAHLVADFLKRWAVERGVNRVVDEVVDVRLNNRGYISNLLTKEGRTLEADLFIDCSGMRGLLINQALKEPFIDMSDYLLCDSAVASAVPNDDARDGVEPYTSSIAMNSGWTWKIPMLGRFGSGYVFSSHFTSRDQATADFLKLWGLSDNQPLNQIKFRVGRNKRAWVNNCVSIGLSSCFLEPLESTGIYFIYAALYQLVKHFPDTSFDPRLSDAFNAEIVHMFDDCRDFVQAHYFTTSRDDTPFWLANRHDLRLSDAIKEKVQRYKAGLPLTTTSFDDSTYYETFDYEFKNFWLNGNYYCIFAGLGMLPDRSLPLLQHRPESIEKAEAMFASIRREAERLRTSLPTNYDYLRSLRDGDAGLSRGQRGPKLAAQESL
notes: full-length, pET28a (NdeI/NotI), expressed in E. coli Arctic Express, HisTrap purified
[1]
  Km: 3267 ± 491 µM
  kcat: 0.035 ± 0.00167 s⁻¹
  kcat/Km: 11.7 ± 1.67 M⁻¹ s⁻¹
[2]
  Km: 0.7 ± 0.1 µM
  kcat: 0.0183 ± 0.000833 s⁻¹
  kcat/Km: 28300 ± 3330 M⁻¹ s⁻¹
[3]
  Km: 19.0 ± 2.2 µM
  kcat: 0.0617 ± 0.00167 s⁻¹
  kcat/Km: 3330 ± 167 M⁻¹ s⁻¹
[4]
  Km: 3161 ± 986 µM
  kcat: 0.0085 ± 0.00117 s⁻¹
  kcat/Km: 2.67 ± 0.833 M⁻¹ s⁻¹
